Reference: ChEMBL document CHEMBL4828702, “Identification of Novel High-Affinity Substrates of OCT1 Using Machine Learning-Guided Virtual Screening and Experimental Validation” (J Med Chem, 2021)

Assays:
[1] = target: Solute carrier family 22 member 1 (Homo sapiens) (UniProt O15245); test: Substrate activity at human OCT1 expressed in HEK293 cells assessed as increase in compound uptake by measuring intrinsic clearance incubated for 2 mins by LC-MS/MS analysis
OCT1 = test: Ratio of drug uptake in human OCT1 expressing HEK293 cells at 2.5 uM to drug uptake in empty vector transfected human HEK293 cells at 2.5 uM; assay type: ADME, cell-based
[2] = substrate: C[N+]1(C)CCN(c2ccccc2)CC1; test: (§1) Substrate activity at human OCT1 expressed in HEK293 cells assessed as increase in compound uptake by measuring Vmax incubated for 2 mins by LC-MS/MS analysis; assay type: cell-based
[3] = substrate: C[N+]1(CCC(C(N)=O)(c2ccccc2)c2ccccc2)CCCCC1; test: as §1; assay type: cell-based
[4] = substrate: NCC(O)c1ccc(O)cc1; test: as §1; assay type: cell-based
[5] = substrate: N=C(N)NC(=O)Cc1c(Cl)cccc1Cl; test: as §1; assay type: cell-based
[6] = substrate: C[N+]1(C)[C@@H]2C[C@H](OC(=O)[C@H](CO)c3ccccc3)C[C@H]1[C@@H]1O[C@@H]12; test: as §1; assay type: cell-based
[7] = substrate: CC(C)NCC(O)c1ccc(NS(C)(=O)=O)cc1; test: as §1; assay type: cell-based
[8] = substrate: CC[N+](CC)(CC)Cc1ccccc1; test: as §1; assay type: cell-based
[9] = substrate: NCC(O)c1cccc(O)c1; test: as §1; assay type: cell-based
[10] = substrate: CC[N+](CC)(CC(=O)Nc1c(C)cccc1C)Cc1ccccc1; test: as §1; assay type: cell-based
[11] = substrate: Nc1ccncc1N; test: as §1; assay type: cell-based
[12] = substrate: CC(CCc1ccc(O)cc1)NCCc1ccc(O)c(O)c1; test: as §1; assay type: cell-based
[13] = substrate: CN[C@@H]1CCc2[nH]c3ccc(C(N)=O)cc3c2C1; test: as §1; assay type: cell-based
[14] = substrate: CC(CCc1ccc(O)cc1)NCC(O)c1ccc(O)cc1; test: as §1; assay type: cell-based
[15] = substrate: NC(N)=Nc1nc(CSCC/C(N)=N/S(N)(=O)=O)cs1; test: as §1; assay type: cell-based
[16] = substrate: CNC[C@H](O)c1cccc(O)c1; test: as §1; assay type: cell-based
[17] = substrate: N=C(N)NCc1cccc(I)c1; test: as §1; assay type: cell-based
[18] = substrate: CC[N+](C)(C)c1cccc(O)c1; test: as §1; assay type: cell-based
[19] = substrate: CCN(CC)C(=O)C1(c2ccccc2)CC1CN; test: as §1; assay type: cell-based
[20] = substrate: CC(C)NC[C@H](O)COc1ccc(O)cc1; test: as §1; assay type: cell-based
[21] = substrate: CCN(CC)CCNC(=O)c1ccc(NS(C)(=O)=O)cc1; test: as §1; assay type: cell-based
[22] = substrate: CC(NCCc1ccc(O)cc1)C(O)c1ccc(O)cc1; test: as §1; assay type: cell-based
[23] = substrate: C[N+]1(C)CCN(c2ccccc2)CC1; test: (§2) Substrate activity at human OCT1 expressed in HEK293 cells assessed as increase in compound uptake by measuring Km incubated for 2 mins by LC-MS/MS analysis; assay type: cell-based
[24] = substrate: C[N+]1(CCC(C(N)=O)(c2ccccc2)c2ccccc2)CCCCC1; test: as §2; assay type: cell-based
[25] = substrate: NCC(O)c1ccc(O)cc1; test: as §2; assay type: cell-based
[26] = substrate: N=C(N)NC(=O)Cc1c(Cl)cccc1Cl; test: as §2; assay type: cell-based
[27] = substrate: C[N+]1(C)[C@@H]2C[C@H](OC(=O)[C@H](CO)c3ccccc3)C[C@H]1[C@@H]1O[C@@H]12; test: as §2; assay type: cell-based
[28] = substrate: CC(C)NCC(O)c1ccc(NS(C)(=O)=O)cc1; test: as §2; assay type: cell-based
[29] = substrate: CC[N+](CC)(CC)Cc1ccccc1; test: as §2; assay type: cell-based
[30] = substrate: NCC(O)c1cccc(O)c1; test: as §2; assay type: cell-based
[31] = substrate: CC[N+](CC)(CC(=O)Nc1c(C)cccc1C)Cc1ccccc1; test: as §2; assay type: cell-based
[32] = substrate: Nc1ccncc1N; test: as §2; assay type: cell-based
[33] = substrate: CC(CCc1ccc(O)cc1)NCCc1ccc(O)c(O)c1; test: as §2; assay type: cell-based
[34] = substrate: CN[C@@H]1CCc2[nH]c3ccc(C(N)=O)cc3c2C1; test: as §2; assay type: cell-based
[35] = substrate: CC(CCc1ccc(O)cc1)NCC(O)c1ccc(O)cc1; test: as §2; assay type: cell-based
[36] = substrate: NC(N)=Nc1nc(CSCC/C(N)=N/S(N)(=O)=O)cs1; test: as §2; assay type: cell-based
[37] = substrate: CNC[C@H](O)c1cccc(O)c1; test: as §2; assay type: cell-based
[38] = substrate: N=C(N)NCc1cccc(I)c1; test: as §2; assay type: cell-based
[39] = substrate: CC[N+](C)(C)c1cccc(O)c1; test: as §2; assay type: cell-based
[40] = substrate: CCN(CC)C(=O)C1(c2ccccc2)CC1CN; test: as §2; assay type: cell-based
[41] = substrate: CC(C)NC[C@H](O)COc1ccc(O)cc1; test: as §2; assay type: cell-based
[42] = substrate: CCN(CC)CCNC(=O)c1ccc(NS(C)(=O)=O)cc1; test: as §2; assay type: cell-based
[43] = substrate: CC(NCCc1ccc(O)cc1)C(O)c1ccc(O)cc1; test: as §2; assay type: cell-based

Sequence of Solute carrier family 22 member 1 (Homo sapiens) (O15245 whole entry, looked up): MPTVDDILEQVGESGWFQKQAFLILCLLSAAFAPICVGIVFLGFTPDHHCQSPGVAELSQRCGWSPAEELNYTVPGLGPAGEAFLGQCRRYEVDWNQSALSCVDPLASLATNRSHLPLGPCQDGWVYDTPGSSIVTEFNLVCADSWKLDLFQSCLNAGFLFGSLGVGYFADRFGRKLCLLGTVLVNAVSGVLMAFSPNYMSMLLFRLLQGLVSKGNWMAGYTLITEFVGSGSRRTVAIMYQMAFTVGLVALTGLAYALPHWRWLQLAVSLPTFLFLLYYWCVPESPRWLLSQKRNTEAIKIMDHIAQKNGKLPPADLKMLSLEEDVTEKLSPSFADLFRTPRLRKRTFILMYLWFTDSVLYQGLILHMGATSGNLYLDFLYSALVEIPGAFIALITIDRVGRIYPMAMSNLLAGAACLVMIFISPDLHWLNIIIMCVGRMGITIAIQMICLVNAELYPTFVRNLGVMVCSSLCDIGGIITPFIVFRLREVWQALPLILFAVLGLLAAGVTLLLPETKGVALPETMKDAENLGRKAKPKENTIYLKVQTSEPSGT

Q: For `N=C(N)NC(=O)Cc1c(Cl)cccc1Cl` [GUANFACINE], which clearance [1] is on record?
A: 138 mL/min/g

Q: What about the uptake ratio at 2.5 µM (OCT1) of the same molecule?
A: 4.3

Q: For `NCC(O)c1cccc(O)c1` (stereo unspecified) [NORFENEFRINE], which clearance [1] is on record?
A: 4.6 mL/min/g

Q: What about the uptake ratio at 2.5 µM (OCT1) of the same molecule?
A: 2.1

Q: What does the source list for `CCN(CC)CCNC(=O)c1ccc(NS(C)(=O)=O)cc1` [SEMATILIDE]?
A: clearance [1]: 3.3 mL/min/g; uptake ratio at 2.5 µM (OCT1): 3.5

Q: What does the source list for `Nc1ccncc1N` [AMIFAMPRIDINE]?
A: clearance [1]: 18.8 mL/min/g; uptake ratio at 2.5 µM (OCT1): 6.8

Q: How did the clearance [1] turn out when `NCC(O)c1ccc(O)cc1` (stereo unspecified) was run?
A: 9.1 mL/min/g

Q: How did the clearance [1] turn out when `CC(CCc1ccc(O)cc1)NCCc1ccc(O)c(O)c1` (stereo unspecified) [DOBUTAMINE] was run?
A: 5.2 mL/min/g

Q: What about the uptake ratio at 2.5 µM (OCT1) of the same molecule?
A: 14.7

Q: What does the source list for `CC[N+](CC)(CC)Cc1ccccc1`?
A: clearance [1]: 62.8 mL/min/g; uptake ratio at 2.5 µM (OCT1): 67.5

Q: `CC(CCc1ccc(O)cc1)NCC(O)c1ccc(O)cc1` (stereo unspecified) [RACTOPAMINE] was tested. Which clearance [1] did it give?
A: 111 mL/min/g

Q: And the uptake ratio at 2.5 µM (OCT1)?
A: 7.1

Q: What does the source list for `C[N+]1(CCC(C(N)=O)(c2ccccc2)c2ccccc2)CCCCC1`?
A: clearance [1]: 114 mL/min/g; uptake ratio at 2.5 µM (OCT1): 30.9

Q: `CN[C@@H]1CCc2[nH]c3ccc(C(N)=O)cc3c2C1` [FROVATRIPTAN] was tested. Which clearance [1] did it give?
A: 50.3 mL/min/g

Q: What about the uptake ratio at 2.5 µM (OCT1) of the same molecule?
A: 33.1

Q: What does the source list for `CC(NCCc1ccc(O)cc1)C(O)c1ccc(O)cc1` (stereo unspecified) [RITODRINE]?
A: clearance [1]: 104 mL/min/g; uptake ratio at 2.5 µM (OCT1): 7.6

Q: `CC(C)NC[C@H](O)COc1ccc(O)cc1` [PRENALTEROL] was tested. Which clearance [1] did it give?
A: 12.4 mL/min/g

Q: And the uptake ratio at 2.5 µM (OCT1)?
A: 5.3

Q: Which results are given for `C[N+]1(C)CCN(c2ccccc2)CC1` [DIMETHYLPHENYLPIPERAZINIUM]?
A: clearance [1]: 47.2 mL/min/g; uptake ratio at 2.5 µM (OCT1): 38.9

Q: What does the source list for `CC[N+](C)(C)c1cccc(O)c1` [EDROPHONIUM]?
A: clearance [1]: 99.5 mL/min/g; uptake ratio at 2.5 µM (OCT1): 42.6

Q: For `NC(N)=Nc1nc(CSCC/C(N)=N/S(N)(=O)=O)cs1`, which clearance [1] is on record?
A: 87.4 mL/min/g

Q: With `N=C(N)NCc1cccc(I)c1` [IOBENGUANE] as the molecule, how does the clearance [1] read?
A: 3160 mL/min/g

Q: And the uptake ratio at 2.5 µM (OCT1)?
A: 10.1

Q: What does the source list for `CC[N+](CC)(CC(=O)Nc1c(C)cccc1C)Cc1ccccc1` [DENATONIUM]?
A: clearance [1]: 71.4 mL/min/g; uptake ratio at 2.5 µM (OCT1): 21.6

Q: Which results are given for `CNC[C@H](O)c1cccc(O)c1` [PHENYLEPHRINE]?
A: clearance [1]: 17.3 mL/min/g; uptake ratio at 2.5 µM (OCT1): 10.6

B1: POU domain, class 2, transcription factor 1 (Homo sapiens), P14859 (protein)
chain: MNNPSETSKPSMESGDGNTGTQTNGLDFQKQPVPVGGAISTAQAQAFLGHLHQVQLAGTSLQAAAQSLNVQSKSNEESGDSQQPSQPSQQPSVQAAIPQTQLMLAGGQITGLTLTPAQQQLLLQQAQAQAQLLAAAVQQHSASQQHSAAGATISASAATPMTQIPLSQPIQIAQDLQQLQQLQQQNLNLQQFVLVHPTTNLQPAQFIISQTPQGQQGLLQAQNLLTQLPQQSQANLLQSQPSITLTSQPATPTRTIAATPIQTLPQSQSTPKRIDTPSLEEPSDLEELEQFAKTFKQRRIKLGFTQGDVGLAMGKLYGNDFSQTTISRFEALNLSFKNMCKLKPLLEKWLNDAENLSSDSSLSSPSALNSPGIEGLSRRRKKRTSIETNIRVALEKSFLENQKPTSEEITMIADQLNMEKEVIRVWFCNRRQKEKRINPPSSGGTSSSPIKAIFPSPTSLVATTPSLVTSSAATTLTVSPVLPLTSAAVTNLSVTGTSDTTSNNTATVISTAPPASSAVTSPSLSPSPSASASTSEASSASETSTTQTTSTPLSSPLGTSQVMVTASGLQTAAAAALQGAAQLPANASLAAMAAAAGLNPSLMAPSQFAAGGALLSLNPGTLSGALSPALMSNSTLATIQALASGGSLPITSLDATGNLVFANAGGAPNIVTAPLFLNPQNLSLLTSNPVSLVSAAAASAGNSAPVASLHATSTSAESIQNSLFTVASASGAASTTTTASKAQ
Q: What does the source list for B1?
A: Vmax [2]: 2930 pmol/mg/min; Vmax [3]: 971 pmol/mg/min; Vmax [4]: 3540 pmol/mg/min; Vmax [5]: 1180 pmol/mg/min; Vmax [6]: 1210 pmol/mg/min; Vmax [7]: 2760 pmol/mg/min; Vmax [8]: 2420 pmol/mg/min; Vmax [9]: 4550 pmol/mg/min; Vmax [10]: 902 pmol/mg/min; Vmax [11]: 9570 pmol/mg/min; Vmax [12]: 147 pmol/mg/min; Vmax [13]: 3110 pmol/mg/min; Vmax [14]: 234 pmol/mg/min; Vmax [15]: 3120 pmol/mg/min; Vmax [16]: 3820 pmol/mg/min; Vmax [17]: 5030 pmol/mg/min; Vmax [18]: 2630 pmol/mg/min; Vmax [19]: 340 pmol/mg/min; Vmax [20]: 165 pmol/mg/min; Vmax [21]: 338 pmol/mg/min; Vmax [22]: 173 pmol/mg/min; Km [23]: 62 µM; Km [24]: 8.6 µM; Km [25]: 389 µM; Km [26]: 8.6 µM; Km [27]: 23.4 µM; Km [28]: 196 µM; Km [29]: 38.6 µM; Km [30]: 994 µM; Km [31]: 12.6 µM; Km [32]: 508 µM; Km [33]: 28.4 µM; Km [34]: 61.9 µM; Km [35]: 2.1 µM; Km [36]: 35.7 µM; Km [37]: 221 µM; Km [38]: 15.9 µM; Km [39]: 26.4 µM; Km [40]: 2.26 µM; Km [41]: 13.3 µM; Km [42]: 102 µM; Km [43]: 1.67 µM
